Molecular target: T1, recombinant human GM-CSF (human, UniProt P04141 18-144)
T1 construct: also called rhGM-CSF
Experiment: SPR, BIAcore 2000, 100 RU rhGM-CSF on chip, antibody 1-10 nM, Langmuir 1:1 model

T1 sequence (P04141 18-144 limits assumed): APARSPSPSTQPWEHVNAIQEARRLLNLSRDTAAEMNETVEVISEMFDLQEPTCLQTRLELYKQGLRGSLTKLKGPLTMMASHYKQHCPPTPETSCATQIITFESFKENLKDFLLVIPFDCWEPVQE

- kon: 510000 M⁻¹ s⁻¹
B1: chimeric 19/2 anti-human GM-CSF monoclonal antibody (antibody, V domains shown)
VH: EVQLQQSGPELVKPGASVKISCKASGYTFTDYNIHWVKQSHGKSLDWIGYIAPYSGGTGYNQEFKNRATLTVDKSSSTAYMELRSLTSDDSAVYYCARRDRFPYFDYWGQGTTLRVSS
VL: DIVMIQSQKFVSTSVGDRVNITCKASQNVGSNVAWLQQKPGQSPKTLIYSASYRSGRVPDRFTGSGSGTDFILTITTVQSEDLAEYFCQQFNRSPLTFGSGTKLELKR

Source: patent US20040053365A1 (LUDWIG INSTITUTE FOR CANCER RESEARCH, published 2004)
